How the values were obtained:
[1] = biological target: IgE (lambda light chain) secreted by U266 cells; experiment: flow cytometry, Ramos + U266 mixed 100X1 with the StAv-FcεRIα capture complex; 94.6 % of the cells lie in the IgM+ gate at low secreted IgE
[2] = biological target: IgE (lambda light chain) secreted by U266 cells; experiment: flow cytometry, U266 cells alone with the StAv-FcεRIα capture complex; x axis Secreted IgE, y axis IgM
Secreted IgG = experiment: flow cytometry, human bone marrow plasma cells (CD20- CD38++) with NHS-biotin, StAv-anti-human Igk and anti-IgG; controls in FIG. 21B (D00065): without NHS-Biotin 1.2%, without StAv-IgKappa 0.72%, without anti-IgG 0%

| % of cells in the secreted IgE+ / IgM- gate [1] | % of cells in the secreted IgE+ / IgM- gate [2] | % IgG+ of plasma cells (Secreted IgG) | Substance |
| --- | --- | --- | --- |
| 2.4% | 94.9% | – | secreted IgE capture reagent: streptavidin conjugated to the ectodomain of the high affinity IgE receptor FcεRIα (from UniProt P12319 26-205) |
| – | – | 5.2% | streptavidin coupled to anti-human Igk (antibody) |
